In US20240384250A1, “FIBROBLAST GROWTH FACTOR 23 MODULATING COMPOUNDS” (THE UAB RESEARCH FOUNDATION, priority 2021, published 2024):
Entries after “also recorded” stand apart in the source; their conditions may differ. Read-outs that look alike come from different tables or passages of the source.

Tests used:
[1] = system: FGF19 binding to FGFR isoforms 1c, 2c, 3c, 4; experiment: Pull-down and plate binding of FGF19 to FGFR isoforms with sKL or heparin; parameters: species or system human
Protocol: To study the interaction between Fc-tagged FGFR isoforms (Fc-FGFR), FGF isoforms, and sKL, immunoprecipitation studies were conducted. Protein A beads (6501, BioVision) and protein G beads (6511, BioVision) were used at 25 μl of a 50% stock slurry per sample in a total bead volume of 50 μl. Beads were washed 5× in activity buffer (50 mM Tris [pH 7.4], 200 mM NaCl, 0.01% Tween 20). Bead spin-down assays were all performed for 2 minutes at 5000 g. Beads were resuspended in 1 ml of activity buffer in a 1.5-ml snap cap tube. One microgram of Fc-FGFR1 to 4 was incubated with the beads for 1 hour on a bead rotator. Control samples were incubated with 2 μg of anti-FGF antibody instead of Fc-FGFR. […] Samples were analyzed using SDS-PAGE and Western blotting.
(§1) Proteins were coated on 96-well plates (MaxiSorp; 439454, Thermo Fisher Scientific), and proteins were added to wells in 100 μl of enzyme-linked immunosorbent assay (ELISA) coating buffer (E107, Bethyl Laboratories) with a lid placed overtop and incubated at 4° C. overnight. […] Reactions were stopped with ELISA stop solution (E115, Bethyl Laboratories) and analyzed using the Synergy HI plate reader (BioTek) at 450 nm wavelength. […] As a control to remove background absorbance values, wells were coated with an equal amount of BSA to match the amount of protein coated in experimental wells and treated the same as experimental wells. […]

[2] = system: FGF1, FGF2, FGF7, FGF19, FGF21; experiment: Plate-based binding assay, other FGF isoforms coated, FLAG-sKL detected with anti-FLAG HRP; parameters: species or system human; conditions: 10 ng FGF coated, 40 ng FLAG-sKL
Protocol: as §1, with “overnight. Plates were washed 5× with 350 μl of assay buffer (50 mM Tris [pH 7.4], 200 mM NaCl, 0.01% Tween 20) on a 50 TS microplate washer (BioTek). Plates were blocked for 1 hour in 200 μl of assay buffer with 0.5% BSA. Plates were washed as before, and proteins were incubated on plates in 100 μl of assay buffer with 0.5% BSA. Proteins or heparin was incubated in orders described in the respective figure legends. Assays using FLAG-tag-based detection were incubated with anti-FLAG coupled to HRP at 1:20,000, and assays using Fc detection were incubated with anti-human Fc coupled to HRP at 1:10,000.” for “overnight.”

[3] = molecular target: T1, FGF19 (Homo sapiens, UniProt O95750); experiment: Co-immunoprecipitation of FGF with FLAG-tagged sKL on anti-FLAG beads; format: binding
T1 construct: purchased R&D Systems 969FG025/CF
T1 sequence (O95750 25-216): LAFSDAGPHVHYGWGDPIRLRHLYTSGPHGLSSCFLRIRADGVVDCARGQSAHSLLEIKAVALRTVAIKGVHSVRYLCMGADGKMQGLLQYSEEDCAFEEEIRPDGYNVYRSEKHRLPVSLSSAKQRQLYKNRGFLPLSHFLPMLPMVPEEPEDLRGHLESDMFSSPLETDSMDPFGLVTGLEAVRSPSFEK
Protocol: (§2) To study the interaction between FLAG-tagged sKL and different FGF isoforms, co-immunoprecipitation studies were conducted. FLAG beads (A2220, Sigma-Aldrich) were used at 50 ul of 50% stock slurry per sample. Beads were washed 5× with activity buffer (50 mM Tris [pH 7.4], 200 mM NaCl, 0.01% Tween 20, Sigma-Aldrich). Bead spin-down assays were all performed for 2 minutes at 5000 g. Fifty microliters of a 50% slurry of beads per sample was resuspended in 1 ml of activity buffer in a 1.5-ml snap cap tube. One microgram of FLAG-tagged sKL or Carboxy-terminal bacterial alkaline phosphatase (BAPC; P7457, Sigma-Aldrich) was incubated with the beads for 1 hour on a bead rotator. Beads were then pelleted at 5000 g for 2 minutes and washed 5× with activity buffer. Beads were resuspended in 1 ml of activity buffer and samples with 500 ng of FGF. Beads were incubated for 1 hour on a tube rotator, and beads were pelleted and washed as before. One hundred microliters of I× Laemmli sample buffer (1610737, Bio-Rad) with 1.42 M 2-mercaptoethanol was added, and samples were boiled for 5 minutes and analyzed using sodium dodecylsulfate-polyacrylamide gel electrophoresis (SDS-PAGE) and Western blotting, as described below herein.
(§3) The sample (20 μl) was loaded onto Mini-PROTEAN TGX Precast Gel 4-20% for experiments with <9 samples (4568094, Bio-Rad) or Criterion TGX Precast Gel 4-20% (5678094, Bio-Rad) for experiments with >9 samples. Gels were run in 1× Tris/Glycine/SDS buffer (1610732, Bio-Rad) at 150 V and stopped when the sample dye reached the end of the gel. Gels were removed and electrotransferred via a semi-dry cassette (1703940, Bio-Rad) in I× Tris/Glycine buffer (1610734, Bio-Rad) with 20% methanol. Gels were transferred onto polyvinylidene diflouride membranes (IPVH00010, Millipore) at 20 V for 1 hour. Membranes were then blocked in 5% dried milk with 0.5% Tween 20 diluted in Tris-buffered saline (TBST; pH 7.5) for 1 hour and probed with antibodies against specific antigens at 1:1000 in TBST with 5% dried milk. Blots were washed 3× for 5 minutes in TBST and probed with HRP-coupled secondary antibodies against specific species at 1:10,000 in TBST with 5% dried milk. Membranes were imaged on the SRX-101A X-ray film developer (Konica Minolta).

[4] = molecular target: T2, FGF21 (Homo sapiens, UniProt Q9NSA1); experiment: as above; format: binding
T2 construct: purchased R&D Systems 2539FG025/CF
T2 sequence (Q9NSA1 29-209): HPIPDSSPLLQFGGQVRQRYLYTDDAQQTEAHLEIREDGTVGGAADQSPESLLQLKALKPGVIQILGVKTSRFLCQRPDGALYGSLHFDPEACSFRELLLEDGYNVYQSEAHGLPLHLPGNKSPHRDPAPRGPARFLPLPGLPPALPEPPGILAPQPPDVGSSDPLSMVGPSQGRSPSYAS
Protocol: as §2, §3

FGF19 binding to FGFR isoforms 1c, 2c, 3c, 4, sequence (O95750 25-216): as the sequence (O95750 25-216) above

B1: sKL: recombinant soluble α-klotho ectodomain, mouse aa 35-982 and human aa 34-981, FLAG- or Strep/His-tagged, purified from HEK293 cells (protein)
chain: EPGDGAQTWARFSRPPAPEAAGLFQGTFPDGFLWAVGSAAYQTEGGWQQHGKGASIWDTFTHHPLAPPGDSRNASLPLGAPSPLQPATGDVASDSYNNVFRDTEALRELGVTHYRFSISWARVLPNGSAGVPNREGLRYYRRLLERLRELGVQPVVTLYHWDLPQRLQDAYGGWANRALADHFRDYAELCFRHFGGQVKYWITIDNPYVVAWHGYATGRLAPGIRGSPRLGYLVAHNLLLAHAKVWHLYNTSFRPTQGGQVSIALSSHWINPRRMTDHSIKECQKSLDFVLGWFAKPVFIDGDYPESMKNNLSSILPDFTESEKKFIKGTADFFALCFGPTLSFQLLDPHMKFRQLESPNLRQLLSWIDLEFNHPQIFIVENGWFVSGTTKRDDAKYMYYLKKFIMETLKAIKLDGVDVIGYTAWSLMDGFEWHRGYSIRRGLFYVDFLSQDKMLLPKSSALFYQKLIEKNGFPPLPENQPLEGTFPCDFAWGVVDNYIQVDTTLSQFTDLNVYLWDVHHSKRLIKVDGVVTKKRKSYCVDFAAIQPQIALLQEMHVTHFRFSLDWALILPLGNQSQVNHTILQYYRCMASELVRVNITPVVALWQPMAPNQGLPRLLARQGAWENPYTALAFAEYARLCFQELGHHVKLWITMNEPYTRNMTYSAGHNLLKAHALAWHVYNEKFRHAQNGKISIALQADWIEPACPFSQKDKEVAERVLEFDIGWLAEPIFGSGDYPWVMRDWLNQRNNFLLPYFTEDEKKLIQGTFDFLALSHYTTILVDSEKEDPIKYNDYLEVQEMTDITWLNSPSQVAVVPWGLRKVLNWLKFKYGDLPMYIISNGIDDGLHAEDDQLRVYYMQNYINEALKAHILDGINLCGYFAYSFNDRTAPRFGLYRYAADQFEPKASMKHYRKIIDSNGFPGPETLERFCPEEFTVCTECSFFHTRKS
modifications: left off: small tags and cut ends
notes: recombinant soluble α-klotho ectodomain, mouse aa 35-982 and human aa 34-981, FLAG- or Strep/His-tagged, purified from HEK293 cells
binding of FGF19 to any of the FGFR isoforms [1]: did not mediate binding; also recorded: did not lead to complex formation; also recorded: did not bind any of the FGFR isoforms
binding of FLAG-sKL to other coated FGF isoforms [2]: not observed
FGF19 co-precipitation with immobilized FLAG-sKL [3]: did not bind
FGF19 co-precipitation with immobilized FLAG-sKL ([3]; listed as FLAG-sKL): does not binds FGF19
FGF21 co-precipitation with immobilized FLAG-sKL [4]: did not bind
FGF21 co-precipitation with immobilized FLAG-sKL ([4]; listed as FLAG-sKL): does not binds FGF21
